Test results taken from patent US20210292396A1.

Tests used:
Experiment in all cases: cell-based or functional assay
[1] = target: Env of HIV isolate BJOX010000.06.2 (clade AE) (HIV)
[2] = target: Env of HIV isolate 6095.v1.c10 (clade ACD) (HIV)
[3] = target: Env of HIV isolate UG037.8 (clade A) (HIV)
[4] = target: HIV Env of isolate 6644.v2.c33 (HIV)
[5] = target: Env of HIV isolate BI369.9A (clade A) (HIV)
[6] = target: Env of HIV isolate C3347.c11 (clade AE) (HIV)
[7] = target: Env of HIV isolate X2088.c9 (clade G) (HIV)
[8] = target: HIV Env of isolate CE703010217.B6 (HIV)
[9] = target: Env of HIV isolate T250-4 (clade AG) (HIV)
[10] = target: Env of HIV isolate 7165.18 (clade B) (HIV)
[11] = target: Env of HIV isolate T257-31 (clade AG) (HIV)
[12] = target: Env of HIV isolate CNE21 (clade BC) (HIV)
[13] = target: HIV Env of isolate ZA012.29 (HIV)
[14] = target: Env of HIV isolate CNE56 (clade AE) (HIV)
[15] = target: Env of HIV isolate CNE19 (clade BC) (HIV)
[16] = target: Env of HIV isolate BX08.16 (clade B) (HIV)
[17] = target: Env of HIV isolate CNE8 (clade AE) (HIV)
[18] = target: HIV Env of isolate 3637.v5.c3 (HIV)
[19] = target: 208-member cross-clade virus panel
[20] = target: Env of HIV isolate CM244.ec1 (clade AE) (HIV)
[21] = target: Env of HIV isolate KER2018.11 (clade A) (HIV)
[22] = target: Env of HIV isolate TH976.17 (clade AE) (HIV)
[23] = target: Env of HIV isolate 16845-2.22 (clade C) (HIV)
[24] = target: HIV Env of isolate 57128.vrc15 (HIV)
[25] = target: Env of HIV isolate QH0515.01 (clade B) (HIV)
[26] = target: Env of HIV isolate HT593.1 (clade B) (HIV)
[27] = target: HIV Env of isolate 25710-2.43 (HIV)
[28] = target: Env of HIV isolate UG024.2 (clade D) (HIV)
[29] = target: HIV Env of isolate CNE40 (HIV)
[30] = target: Env of HIV isolate Q461.e2 (clade AD) (HIV)
[31] = target: HIV Env of isolate 0013095-2.11 (HIV)
[32] = target: Env of HIV isolate SO18.18 (clade C) (HIV)
[33] = target: HIV Env of isolate UG024.2 (HIV)
[34] = target: Env of HIV isolate CH117.4 (clade BC) (HIV)
[35] = target: HIV Env of isolate 0077.v1.c16 (HIV)
[36] = target: Env of HIV isolate CAP45.G3 (clade C) (HIV)
[37] = target: Env of HIV isolate 286.36 (clade C) (HIV)
[38] = target: Env of HIV isolate UG021.16 (clade D) (HIV)
[39] = target: Env of HIV isolate X2278.C2.B6 (clade B) (HIV)
[40] = target: HIV Env of isolate ZM197.7 (HIV)
[41] = target: HIV Env of isolate CNE20 (HIV)
[42] = target: HIV Env of isolate 288.38 (HIV)
[43] = target: Env of HIV isolate R1166.C1 (clade AE) (HIV)

B1: ePGT121.18 (ePGT121.18.H1 VH and ePGT121.17.L1 VL) (antibody, V domains shown)
VH: QMQLQESGPGLVKPGETLSLTCSVSGASISSSYWSWLRETPGKGLEWIGYTHHSGDTNYAPSLKSRVHLGLHPSKNQVSLSLTSVTAADTAVYYCARTLHGRRIYGVVAFNEYYTYFYWPTWGKGTQVTVSS
VL: SDISVAPGETVRITCGGESIGSRAVQWYQHRPGQAPRLIIYNNQDRPPGIPERFSGSPDIDFGTTATLTISNVEAGDEATYYCHIWDSRRPTNWELGPGTTLTVL
In the case of B1, the IC50, pseudovirus neutralization [1] is reported as > 50000 ng/mL, the IC50, pseudovirus neutralization [2] is reported as 6 ng/mL and the IC50, pseudovirus neutralization [3] is reported as 2 ng/mL. For the same binder, the IC80, pseudovirus neutralization (M1) [4] was 5 ng/mL, the IC80, pseudovirus neutralization (M2) [4] was 6 ng/mL and the IC50, pseudovirus neutralization [5] was 1 ng/mL. The IC50, pseudovirus neutralization [6] was > 50000 ng/mL, the IC50, pseudovirus neutralization [7] was 2 ng/mL and the IC80, pseudovirus neutralization (M1) [8] was 8 ng/mL. The IC80, pseudovirus neutralization (M2) [8] was 8 ng/mL, the IC50, pseudovirus neutralization [9] was 0.8 ng/mL and the IC50, pseudovirus neutralization [10] was 1 ng/mL. The IC50, pseudovirus neutralization [11] was > 50000 ng/mL, the IC50, pseudovirus neutralization [12] was 0.9 ng/mL and the IC80, pseudovirus neutralization (M1) [13] was 6 ng/mL. The IC80, pseudovirus neutralization (M2) [13] was 7 ng/mL, the IC50, pseudovirus neutralization [14] was > 50000 ng/mL and the IC50, pseudovirus neutralization [15] was 1 ng/mL. The IC50, pseudovirus neutralization [16] was 3 ng/mL, the IC50, pseudovirus neutralization [17] was > 50000 ng/mL and the IC80, pseudovirus neutralization (M1) [18] was > 50000 ng/mL. For the same binder, the IC80, pseudovirus neutralization (M2) [18] was > 50000 ng/mL, the % vs Neutralized, IC50 < 0.01 ug/ml [19] was 56% and the % vs Neutralized, IC50 < 0.1 ug/ml [19] was 66%. The % vs Neutralized, IC50 < 1.0 ug/ml [19] was 71%, the % vs Neutralized, IC50 < 10 ug/ml [19] was 76% and the % vs Neutralized, IC50 < 50 ug/ml [19] was 78%. It also gave a % vs Neutralized, IC80 < 0.01 ug/ml (M1) [19] of 43.8%, a % vs Neutralized, IC80 < 0.01 ug/ml (M2) [19] of 38.5% and a % vs Neutralized, IC80 < 0.1 ug/ml (M1) [19] of 60.6%. The % vs Neutralized, IC80 < 0.1 ug/ml (M2) [19] was 59.6%, the % vs Neutralized, IC80 < 1.0 ug/ml (M1) [19] was 65.9% and the % vs Neutralized, IC80 < 1.0 ug/ml (M2) [19] was 65.9%. It also gave a % vs Neutralized, IC80 < 10 ug/ml (M1) [19] of 70.7%, a % vs Neutralized, IC80 < 10 ug/ml (M2) [19] of 69.7% and a % vs Neutralized, IC80 < 50 ug/ml (M1) [19] of 73.1%. For the same binder, the % vs Neutralized, IC80 < 50 ug/ml (M2) [19] was 72.6%, the Geometric Mean (IC50) [19] was 8.1 ng/mL and the Geometric Mean IC80 (M1) [19] was 17.7 ng/mL. The Geometric Mean IC80 (M2) [19] was 20.2 ng/mL, the Median IC50 [19] was 3 ng/mL and the Median IC80 (M1) [19] was 7 ng/mL. It also gave a Median IC80 (M2) [19] of 8 ng/mL, a Total VS Neutralized, IC50 < 0.01 ug/ml (viruses of 208) [19] of 116 and a Total VS Neutralized, IC50 < 0.1 ug/ml (viruses of 208) [19] of 137. It also gave a Total VS Neutralized, IC50 < 1.0 ug/ml (viruses of 208) [19] of 148, a Total VS Neutralized, IC50 < 10 ug/ml (viruses of 208) [19] of 159 and a Total VS Neutralized, IC50 < 50 ug/ml (viruses of 208) [19] of 162. It also gave a Total VS Neutralized, IC80 < 0.01 ug/ml (M1) (viruses of 208) [19] of 91, a Total VS Neutralized, IC80 < 0.01 ug/ml (M2) (viruses of 208) [19] of 80 and a Total VS Neutralized, IC80 < 0.1 ug/ml (M1) (viruses of 208) [19] of 126. The Total VS Neutralized, IC80 < 0.1 ug/ml (M2) (viruses of 208) [19] was 124, the Total VS Neutralized, IC80 < 1.0 ug/ml (M1) (viruses of 208) [19] was 137 and the Total VS Neutralized, IC80 < 1.0 ug/ml (M2) (viruses of 208) [19] was 137. It also gave a Total VS Neutralized, IC80 < 10 ug/ml (M1) (viruses of 208) [19] of 147, a Total VS Neutralized, IC80 < 10 ug/ml (M2) (viruses of 208) [19] of 145 and a Total VS Neutralized, IC80 < 50 ug/ml (M1) (viruses of 208) [19] of 152. For the same binder, the Total VS Neutralized, IC80 < 50 ug/ml (M2) (viruses of 208) [19] was 151, the IC50, pseudovirus neutralization [20] was 460 ng/mL and the IC50, pseudovirus neutralization [21] was > 50000 ng/mL. For the same binder, the IC50, pseudovirus neutralization [22] was > 50000 ng/mL, the IC50, pseudovirus neutralization [23] was 36 ng/mL and the IC80, pseudovirus neutralization (M1) [24] was 9 ng/mL. The IC80, pseudovirus neutralization (M2) [24] was 10 ng/mL, the IC50, pseudovirus neutralization [25] was 7 ng/mL and the IC50, pseudovirus neutralization [26] was 3 ng/mL. It also gave an IC80, pseudovirus neutralization (M1) [27] of 10 ng/mL, an IC80, pseudovirus neutralization (M2) [27] of 13 ng/mL and an IC50, pseudovirus neutralization [28] of 2360 ng/mL. The IC80, pseudovirus neutralization (M1) [29] was 47 ng/mL, the IC80, pseudovirus neutralization (M2) [29] was 47 ng/mL and the IC50, pseudovirus neutralization [30] was > 50000 ng/mL. For the same binder, the IC80, pseudovirus neutralization (M1) [31] was 4210 ng/mL, the IC80, pseudovirus neutralization (M2) [31] was 2160 ng/mL and the IC50, pseudovirus neutralization [32] was 3 ng/mL. For the same binder, the IC80, pseudovirus neutralization (M1) [33] was > 50000 ng/mL, the IC80, pseudovirus neutralization (M2) [33] was > 50000 ng/mL and the IC50, pseudovirus neutralization [34] was > 50000 ng/mL. For the same binder, the IC80, pseudovirus neutralization (M1) [35] was > 50000 ng/mL, the IC80, pseudovirus neutralization (M2) [35] was > 50000 ng/mL and the IC50, pseudovirus neutralization [36] was 1740 ng/mL. It also gave an IC50, pseudovirus neutralization [37] of 1 ng/mL, an IC50, pseudovirus neutralization [38] of 6 ng/mL and an IC50, pseudovirus neutralization [39] of 1 ng/mL. For the same binder, the IC80, pseudovirus neutralization (M1) [40] was > 50000 ng/mL, the IC80, pseudovirus neutralization (M2) [40] was > 50000 ng/mL and the IC80, pseudovirus neutralization (M1) [41] was 3 ng/mL. For the same binder, the IC80, pseudovirus neutralization (M2) [41] was 4 ng/mL, the IC80, pseudovirus neutralization (M1) [42] was 2 ng/mL and the IC80, pseudovirus neutralization (M2) [42] was 2 ng/mL. For the same binder, the IC50, pseudovirus neutralization [43] was > 50000 ng/mL.

B2: ePGT121.15.H2.L1 (antibody, V domains shown)
VH: QMQLQESGPGLVKPGETLSLTCSVSGASISSSYWSWLRETPGKGLEWIGYTHHSGDTNYAPSLKSRVHLGLHPSKNQVSLSLTSVTAADTAVYYCARTLHGRRIYGVVAFNEWFTYFYWEVWGKGTQVTVSS
VL: SDISVAPGETVRISCGGESIGSRAVQWYQHRAGQAPKLIIYNNQDRPPGIPERFSGSPDIDFGTTATLTITNVEAGDEATYYCHIWDSRRPTNWVFGGGTTLTVL
In the case of B2, the neutralization (Table 6 value) [41] is reported as 0.000538.
